The text below walks through data of patent EP4034238B1 (Centro Nacional de Investigaciones Cardiovasculares Carlos …, dated 2025).

Assay [1] concerns the target T1, ALDH4A1-FLAG protein (mouse ALDH4A1, C-Flag tag) (mouse, UniProt Q8CHT0 24-562, limits assumed).
T1 construct: Purified on anti-FLAG M2 gel and coated at 5 ug/ml in the ELISAs; used as lysate of transfected HEK293T cells in the IP; also called murine ALDH4A1-FLAG; not shown: C-terminal FLAG tag
T1 sequence (looked up): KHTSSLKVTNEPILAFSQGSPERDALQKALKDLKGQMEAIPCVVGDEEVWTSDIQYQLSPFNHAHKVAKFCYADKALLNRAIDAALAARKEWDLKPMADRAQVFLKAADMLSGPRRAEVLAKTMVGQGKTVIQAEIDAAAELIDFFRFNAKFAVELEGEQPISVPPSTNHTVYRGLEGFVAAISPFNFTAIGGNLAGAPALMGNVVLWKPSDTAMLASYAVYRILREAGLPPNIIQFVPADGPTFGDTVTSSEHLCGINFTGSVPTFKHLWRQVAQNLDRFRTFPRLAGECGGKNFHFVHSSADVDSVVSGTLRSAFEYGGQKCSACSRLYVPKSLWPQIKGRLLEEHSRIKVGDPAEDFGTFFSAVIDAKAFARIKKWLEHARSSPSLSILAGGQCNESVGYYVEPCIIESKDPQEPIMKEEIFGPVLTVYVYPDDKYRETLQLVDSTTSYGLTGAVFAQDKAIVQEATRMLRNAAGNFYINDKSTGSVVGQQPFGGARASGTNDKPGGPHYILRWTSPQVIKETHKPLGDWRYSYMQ
Briefly: ELISA screen for ALDH4A1 reactivity (mark in Table 1).

Assay [2] deals with T2, Aldehyde Dehydrogenase 4 Family Member A1 (ALDH4A1), endogenous mouse protein from aorta lysate (mouse, UniProt Q8CHT0 24-562).
T2 construct: Native protein precipitated from mouse aorta lysates; also called ALDH4A1 mitochondrial protein
T2 sequence (looked up): T1 sequence (looked up)
As to the kind of experiment: deep proteomics analysis (IP + mass spectrometry).

B1: A12 antibody (antibody, human IgG1, V domains shown)
VH: EVQLVESGGDLVKPGGSLKLSCAASGFTFSSYGMSWVRQTPDKRLEWVATISSGGSYTYYPDSVKGRFTISRDNAKNTLYLQMSSLKSEDTAMYYCARPHVVTTPGWYFDVWGTGTTVTVSS
VL: DIVMTQSPATLSVTPGDRVSLSCRASQSISDYLHWYQQKSHESPRLLIKYASQSISGIPSRFSGSGSGSDFTLSINSVEPEDVGVYYCQNGHSFPLTFGAGTKLELK
notes: also called huA12-IgG1
Take B1: the binding result in assay [1] and in assay [2] was “binds” each time.
